{"source": "a protein production outcome set (Wang et al. 2014)", "test": "label from the status in PepcDB records"}
{"sequence": "MTDVEKPVDNSGTLIDDILSPLKGVNEDLNVLVLGGDKVNNNTDTMMLVNFKPSTSKVSILSIPRDTKVKINGKKAKINSAYPTGGGELAVQTVSELFGIDVKYYVFVDTSSFRKIIDILGGVDYYVPVDMDYDDPLQGLSIHIKKGQHHFDGAMAEKFMRFRQYNNGRVNEYYDGSDLKRIDAQQNFIRELVRQKLNIFYLTKVDDIASTIFSNIDTNLNMSEVLKLTGSVSKVQADSINMLKVPGKSVLDGAWYYVIDSQETDKIINEYFRTRYKLEHHHHHH", "values": [{"measurement": "protein production", "result": "not failed"}]}
{"sequence": "NKYNKIANELIKIIGEDNIISITHCATRLRVMVKDREIINDKKVEKVDEVKGVFFTSGQYQIILGTGIVNKVYAEVEKMGLKTLSKKEQDEL", "values": [{"measurement": "protein production", "result": "not failed"}]}
{"sequence": "MDDNTKELEQYWDEFSQEYEEIQNESLVDIGQQLKEFLLAEKLLPTSQFLDLAGGTGKYIPHFSNFTDSYHLVDLSAKMLEFAKNKSADSNKITFTHQEQNKFLKNTKENTYDFVFSAMNPALESKEALVELNRIANGNVGILRLIFDEDNLFSQVEQLYLPNQEQNKEAQMLLYKVWLEELGWEFKSKKFRFFLSEKVSSQFFSDYFSDELSNAELAALTQLFFSETEIREMERLVIFELLYWEKC", "values": [{"measurement": "protein production", "result": "failed"}]}
{"sequence": "MEKCDFYHIIVLSLNFPGYLKMEYGSTKMEERLSRSPGGKLALWAFYTWCGYFVWAMARYIWVMSRIPDAPVSGFESDLGSTAGKWLGALVGFLFMALVGALLGSIAWYTRPRPARSRRYE", "values": [{"measurement": "protein production", "result": "failed"}]}
{"sequence": "EVNAAMNDGVICDMFEGHTPFKPRYVLPDYARYLQQGSEYLELSPAQDLDEALNALTILYHHVPSVTNIPVYLGQLDDILMPFVEGMDADALYRKLKLFWIMLDRTLPDAFMHVNLGPTDNIVCRTLLRIDAELKQVAPNLTFMYDPAVTPDELLQIATTNICQCSKPHIANYPQHASAFDACGFGIVSCYNALPLAGGANTLVRLNLKEVALKATSINDFFERVLPYYCSLTFELIEARSAFLHQESHFFDSFLVKEQLIDESRFAPMFGIYGMAEAVNILQAQMTSETDKSSQSNKPTGYGHSMDANQLGYRISAALDTIVKSTPVTYGYHGRALLHSQGGISLDKGVTPGVRIPYGTEPNPIAHIQALAQHHQYYTAGISDILTIDETVKSNPQAMFQLCKAALELGFREFTANVASNDLMRVTGYMVKRSDIEAFKQ", "values": [{"measurement": "protein production", "result": "failed"}]}
{"sequence": "MNVRKFPFAMRAGVAGMLALAALLAGCGSLSGSEMSRRTDADIEVARQRQADEKAELTSPGTYLSLIRRMQEQGMYYASLAHIDAYVQRFGRTPDVLLLRADALRETDQPAAAEADYRAVVEATSALGAGTQGALLNANAWRGLGITAGRQGRFAEAVRRLQLAARGNPTDASTESDLGYALMRAGEVEQARVPLMQAAQLDAANPKIAGNLAIWLDVNDRKEAAAALTAHARLSEAARKAIDEDAARVRSAWRDRRVARDTAPQPVQRAVVANPALMPAAAAPRSSAPLAFQRGRLLDNLEAAQ", "values": [{"measurement": "protein production", "result": "failed"}]}
{"sequence": "MSSLQGGISLTHIAAGIAVVALIILGVGFYAIYQELASLRSQVEGLNTRYEEISESLEEVQGAFESSRGDIESIASSLESIQDRVSKIEERLGSAATQSDLDAVARELASLTQQLEDLQARIQALEESGAEAGERLDQLAMALQDLQARLASLEERVDEVYASLYFPVTVVDGTGTPVVILERPERIVSMAPSATETLYYVGALDRVVGVDQYSDFPPELNEAKEAGEVEVIGGYWNPSIEAILSLEPDLVVGVASVPNHIQVKKVLSAYGIPVILLPDSSLEDVRESMMIVGKATGEVVGAYEAVLKFDMAVAAAGLLLEGVEPVETAVVVWPNPLFVVGGGTWEHEVIELAGGVNVYGDTQGWPQVSYESLLEADPDVIILMGGHGNSGVTVEGFIEALESQLGEAAWEIDAVASGRIYVLLDEYNDSFARPSPRTVLSIYVLAVLIQPSAFDIQPGDLPSEVSPETLDVLGLLEGRVPEEVLEFLGEALG", "values": [{"measurement": "protein production", "result": "failed"}]}
{"sequence": "SKDPAFTALLTTQLQVQREIVNKHNELRKAVSPPASNMLKMEWSREVTTNAQRWANKCTLQHSDPEDRKTSTRCGENLYMSSDPTSWSSAIQSWYDEILDFVYGVGPKSPNAVVGHYTQLVWYSTYQVGCGIAYCPNQDSLKYYYVCQYCPAGNNMNRKNTPYQQGTPCAGCPDDCDKGLCTNSCQYQDLLSNCDSLKNTAGCEHELLKEKCKATCLCENKIY", "values": [{"measurement": "protein production", "result": "failed"}]}
{"sequence": "MNMKFTKILVQIAALYVFYMVGTWVQEMLNIPIPGSLIGMFLLLVLLSLKVLPVKWFDLGAETLVAIMPFLLIPPTLGLMNYGAFFMSKGISLFITVVASTFLIIIVAGHTGQYLANRKERESR", "values": [{"measurement": "protein production", "result": "failed"}]}
{"sequence": "MFSMILSGLICGALLGFVMQRGRFCLTGGFRDMYIVKNNRMFYALLIAISVQSVGVFALIQAGLLTYEAGAFPWLGTVIGGYIFGLGIVLAGGCATGTWYRAGEGLIGSWIALFTYMVMSAVMRSPHASGLNQTLQHYSTEHNSIAETFNLSVWPLVAVLLVITLWVVMKELKKPKLKVATLPPRRTGIAHILFEKRWHPFVTAVLIGLIALLAWPLSEATGRMFGLGITSPTANILQFLVAGDMKYINWGVFLVLGIFVGSFIAAKASREFRVRAADAQTTLRSGLGGVLMGFGASIAGGCSIGNGLVMTAMMTWQGWIGLVFMILGVWTASWLVYVRPQRKARLATAAAN", "values": [{"measurement": "protein production", "result": "failed"}]}
{"sequence": "MYTYSLLNLSHCRRQTRKKRKTDHTEGFLMEETKPKTVEDVETVDVYTAKGFLSTGHRYLDVRTNEEFAKSHVEEALNIPYMFKTDEGRVINPDFLSQVASVCKKDEHLIVACNAGGRGSRACVDLLNEGYDHVANMGGGYSAWVDAGFAGDKPPEDLKIACKFRPKEN", "values": [{"measurement": "protein production", "result": "failed"}]}
{"sequence": "MFARFLAQLDFVLTCDRLKTALRTTRLHDGSRLENSAEHSWHLALLALTLAEYAPTGTDVGRVVRLLLMHDLVEIGAGDLSFDAPAEAQAAQQEAEARAAAELFGLLPTDQAAEFLGLWQEFEARQTTEVRFARALDALQPMLLTWGPGAQGCAASHPELTHLRVLGLKEKHLREFPELWAAAQGVMAQAQARGVLQPLEHHHHHH", "values": [{"measurement": "protein production", "result": "failed"}]}
{"sequence": "MKIAIASGKGGTGKTTVAVNLALALEEVQLFDCDVEEPNCNLFLGFEMEPVEEVVFLVPEINPDKCTLCRGCSDFCRYNALAAIPNRILSFPSLCHGCGGCSFVCPAGAIEEKPETIGIIQKALSDSPLTFFCGTLKIGKATATPVIKSLQNHIDESRPAIIDSPPGTACPVLAVMGFADYCVLVTESTPFGFHDFCLALEAARALNVPVGVVLNRDGLGDSRVEDFCRAEGIPILLRIPNDRTIARLYSEGIPFVKEMPEWKKQFKDMFETIKTGLYESKGVQLEHHHHHH", "values": [{"measurement": "protein production", "result": "failed"}]}
{"sequence": "FEERSGVVPCGTPWGQWYQTLEEVFIEVQVPPGTRAQDIQCGLQSRHVALAVGGREILKGKLFDSTIADEGTWTLEDRKMVRIVLTKTKRDAANCWTSLLESEYAADPWVQDQMQRKLTLERFQKENPGFDFSGAEISGNYTKGGPDFSNLEKDGT", "values": [{"measurement": "protein production", "result": "not failed"}]}
{"sequence": "MIGDGIENSPLLTDLAFPYRLLGAGKESRECLFLLHGSGVDETTLVPLARRIAPTATLVAARGRIPQEDGFRWFERIDPTRFEQKSILAETAAFAAFTNEAAKRHGLNLDHATFLGYSNGANLVSSLMLLHPGIVRLAALLRPMPVLDHVPATDLAGIRTLIIAGAADETYGPFVPALVTLLSRHGAEVDARIIPSGHDIGDPDAAIVRQWLAGPIAIAQAD", "values": [{"measurement": "protein production", "result": "not failed"}]}
{"sequence": "SLGAMFRAGTPMPPNLNSQGGGHYFIDRDGKAFRHILNFLRLGRLDLPRGYGETALLRAEADFYQIRPLLDALRELEASQGTPAPTAALLHADVDVSPRLVHFSARRGPHHYELSSVQVDTFRANLFCTDSECLGALRARFGVASGDRAEGSPHFHLEWAPRPVELPEVEYGRLGLQPLWTGGPGERREVVGTPSFLEEVLRVALEHGFRLDSVFPDPEDLLNSRSLRFVRH", "values": [{"measurement": "protein production", "result": "not failed"}]}
{"sequence": "SFQTVPSTAETSAVLLQDSGWDALAQRLALIETAEHSIDIQYYIWNSDASGHYLASRLLAAADRGVKVRVMLDDINLNEREDLLVALNAHPHVEIRVFNPIPTRRGVTKWVNFLGDFSRLNRRMHNKSFTVDGVFSVVGGRNIGDEYFDLSNEINFRDRDVLVRGSVVYDIQTSFIEYWDSRWSYPVDLLAKEASQEPLLQKQPVLDEIDAPVYKNYPA", "values": [{"measurement": "protein production", "result": "failed"}]}
{"sequence": "MASIVMLLRALMSCRLTPKDEPETSDSSSSAAKLYRNIVGDENVTRKRISVVDTSHLGDNHEFIIETTCGSNDMDEGFYWIIVRNHLM", "values": [{"measurement": "protein production", "result": "failed"}]}
